Experimental data as given in the supplement of paper PMC9170038.

System: MS2 coat protein
Experiment: apparent KD of MS2 coat protein; designed switch direction (-1 OFF switch, 1 ON switch): 1; higher = weaker reporter binding
Method in brief: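 The reported apparent KD is a per-design median over clusters, from curve fits of normalised cluster fluorescence. Protein titrations used SNAP-549-labelled MS2 coat protein, doubled from 0.7 or 1.5 nM to 3 µM, in Tris-HCl pH 7.5 buffer with KCl, MgCl2, BSA, DTT, tRNA and Tween-20, with no input, 200 uM small-molecule ligand, or an oligonucleotide input. The RNA switches were transcribed on Illumina chips by stalled E. coli RNA polymerase.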

[1] = input ligand: microRNA oligo, concentration not stated
[2] = Eterna round: R95, input ligand: FMN 200 uM
[3] = Eterna round: R95, input ligand: microRNA oligo, concentration not stated
[4] = Eterna round: R95, input ligand: none

## CAGCGUACCGGAGGAUAUUGUGGAUACGACCAACAUGAGGAUCACCCAUGUGGGACUAGUCAAAUCAAGAAGGUUGGACCGUCA [Eternabot solution 44] (Eterna round: R96, puzzle: Same State NG 2)
Input ligand: FMN 200 uM
  apparent KD of MS2 coat protein: 26.2 nM
[1]
  apparent KD of MS2 coat protein: 25.6 nM
Input ligand: none
  apparent KD of MS2 coat protein: 33.3 nM

## UAAAUAAAGUAAGGAUAUACAUGAGGAUCUCUCGUAGAAGGUACUAUACAUGAGGAUCACCCAUGUGCCGGUCAAUAGACUGGA [Mat - Same State NG 1 - JL mod - D9] (Eterna round: R96, puzzle: Same State NG 1)
Input ligand: FMN 200 uM
  apparent KD of MS2 coat protein: 589 nM
[1]
  apparent KD of MS2 coat protein: 131 nM
Input ligand: none
  apparent KD of MS2 coat protein: 446 nM

## GAGUGACGAUUAGGAUAUAUAGUGAUAAUGAUAAUAGAAGGAAUUGACAUGAGGAUCACCCAUGUAGGACUAAUCCAGAGAGAG [Parity 28 - Jieux - Same State NG 1] (Eterna round: R96, puzzle: Same State NG 1)
[1]
  apparent KD of MS2 coat protein: 44.9 nM

## AUAAUAAUAACUGAGGAUAUGUUGAUAAAGACAUGAGGAUCACCCAUGUGAAAUAAAAUAAUAAUACAGAAGGCAGAAUAAUAAA [JMF's solution 1] (puzzle: Same State 2)
[2]
  apparent KD of MS2 coat protein: 23 nM
[3]
  apparent KD of MS2 coat protein: 29.7 nM
[4]
  apparent KD of MS2 coat protein: 25.7 nM

## ACAUUUAGCUCGUGCACAUGAGGAUCACCCAUGUUCGGUUCACAGGAUAUCUAGUCAAACGGAUUGGAGAAGGGUGGCAGGAGC [Gelegees] (Eterna round: R96, puzzle: Same State NG 3)
Input ligand: FMN 200 uM
  apparent KD of MS2 coat protein: 35.7 nM
[1]
  apparent KD of MS2 coat protein: 128 nM
Input ligand: none
  apparent KD of MS2 coat protein: 215 nM

## CUGAGCGAUUAAGGAUAUCACGUCGAUUAGACGUGAGAAGGUGAUCAUAACAUGAGGAUCACCCAUGUAUUACAUGAAGCUCAG [SSNG1/3-A2] (Eterna round: R96, puzzle: Same State NG 1)
Input ligand: FMN 200 uM
  apparent KD of MS2 coat protein: 312 nM
[1]
  apparent KD of MS2 coat protein: 36.8 nM
Input ligand: none
  apparent KD of MS2 coat protein: 128 nM

## GGAAACAACACAGGAUAUCCAGAUGAUGAUGAAGGAGAAGGGUGUGCCCACAUGAGGAUCACCCAUGUUACAACGAAUAGAUAA [racquet 1] (Eterna round: R96, puzzle: Same State NG 1)
Input ligand: FMN 200 uM
  apparent KD of MS2 coat protein: 457 nM
[1]
  apparent KD of MS2 coat protein: 666 nM
Input ligand: none
  apparent KD of MS2 coat protein: 1240 nM

## GUGGAGGGUUGAGGAUAUUGAAUACAUAUGUUUAACAUGAGGAUCACCCAUGUGGGUUGCGGUAUCGAGAAGGUAGGUUGCUGG [salish99_SSNG2_r04_039] (Eterna round: R96, puzzle: Same State NG 2)
Input ligand: FMN 200 uM
  apparent KD of MS2 coat protein: 96.7 nM
[1]
  apparent KD of MS2 coat protein: 45.2 nM
Input ligand: none
  apparent KD of MS2 coat protein: 84.9 nM

## ACACCACAUGAGGAUCACCCAUGUGUCAAUAACACAGGAUAUCACCCGGAAAACAACGGGUGAGAAGGGUGACCGA [Edan] (puzzle: Same State 1)
[2]
  apparent KD of MS2 coat protein: 107 nM
[3]
  apparent KD of MS2 coat protein: 44.6 nM
[4]
  apparent KD of MS2 coat protein: 75.8 nM

## UGACACACGGCAGGAUAUCGUUAGCAAAGCUAACGAGAAGGGCCUCAUGUCGUGGAAACGUGACAUGAGGAUCACCCAUGUCGC [Omei SS(NG)1 Cv9] (Eterna round: R96, puzzle: Same State NG 1)
Input ligand: FMN 200 uM
  apparent KD of MS2 coat protein: 272 nM
[1]
  apparent KD of MS2 coat protein: 27.3 nM
Input ligand: none
  apparent KD of MS2 coat protein: 58.5 nM

## AGCUAAAACGAAGGAUAUACAGACAUGAGGAUCACCCAUGUAUACAUGAUUUAUUGUGAUCACAUGUAGAAGGUCGUACUAACA [SameState NG2 #20] (Eterna round: R96, puzzle: Same State NG 2)
Input ligand: FMN 200 uM
  apparent KD of MS2 coat protein: 190 nM
[1]
  apparent KD of MS2 coat protein: 649 nM
Input ligand: none
  apparent KD of MS2 coat protein: 681 nM

## CGCCGACAUGAGGAUCACCCAUGUCACAACUGGUCAGGAUAUGGUAUGAUUUGGCUAUUGCCAGAAGGGACCUCAG [JR_SS001_Sub712] (Eterna round: R96, puzzle: Same State 1)
Input ligand: FMN 200 uM
  apparent KD of MS2 coat protein: 22.4 nM
[1]
  apparent KD of MS2 coat protein: 28.8 nM
Input ligand: none
  apparent KD of MS2 coat protein: 30.6 nM

## CGUAGGUAGCUGGAGGAUAUUCGAGUGGUAACAUGAGGAUCACCCAUGUGUUGAGAGGUACAUGAGGAGAAGGCUAGCUGCCUGC (puzzle: Same State 2)
[2]
  apparent KD of MS2 coat protein: 17.6 nM
[3]
  apparent KD of MS2 coat protein: 58.2 nM
[4]
  apparent KD of MS2 coat protein: 75.1 nM

## UCUUGGUUUUUGCUCGUUUUUUGUGUUGAACAUGAGGAUCACCCAUGUAUUGUACAAUCCGGUUUGAUGAUGGUCCG [JMF 52] (puzzle: Sensor for hsa-mir-208a)
[2]
  apparent KD of MS2 coat protein: 57.2 nM
[3]
  apparent KD of MS2 coat protein: 44.5 nM
[4]
  apparent KD of MS2 coat protein: 54.1 nM

## UAAUUAAGUCAAGGAUAUCACGUCGUUUAGACGUGAGAAGGUGACCAAUACAUGAGGAUCACCCAUGUAAUACAUGAAUAAUUA [SSNG1/12-B3] (Eterna round: R96, puzzle: Same State NG 1)
Input ligand: FMN 200 uM
  apparent KD of MS2 coat protein: 35.5 nM
[1]
  apparent KD of MS2 coat protein: 46.9 nM
Input ligand: none
  apparent KD of MS2 coat protein: 51.4 nM

## AUUUUUAGUGCAGGAUAUGAUUAACAUGAGGAUCACCCAUGUGGUGUUGUGAGUAAGGAGAGUGAUCAGAAGGGCAUUUUUUUU [JMF's solution 92] (Eterna round: R96, puzzle: Same State NG 2)
Input ligand: FMN 200 uM
  apparent KD of MS2 coat protein: 1020 nM
[1]
  apparent KD of MS2 coat protein: 452 nM
Input ligand: none
  apparent KD of MS2 coat protein: 456 nM

## AGUCCAGCCUGAGCUGGACAGAAGCAUGUACAUGAGGAUCACCCAUGUUCAUGUACAAGCUUUUUGCUCGUCUUAAA [Zipper 52 - 3] (puzzle: Sensor for hsa-mir-208a)
[2]
  apparent KD of MS2 coat protein: 480 nM
[3]
  apparent KD of MS2 coat protein: 14.2 nM
[4]
  apparent KD of MS2 coat protein: 436 nM

## AAACGGCCCAACGGAGGGCCACAUGAGGAUCACCCAUGUACAUAGGAUAUCACACCAACAAGGCGUGAGAAGGGUGAUUAAAAC [Xeatte] (Eterna round: R96, puzzle: Same State NG 3)
Input ligand: FMN 200 uM
  apparent KD of MS2 coat protein: 58.1 nM
[1]
  apparent KD of MS2 coat protein: 1120 nM
Input ligand: none
  apparent KD of MS2 coat protein: 747 nM

## AAAUAAACACAUGAGGAUCACCCAUGUCCCAAAAUACAAACGCAGGAUAUGGGCACGAACCGUGUCCAGAAGGGCGCAAAAUAC [Esonbia] (Eterna round: R96, puzzle: Same State NG 3)
Input ligand: FMN 200 uM
  apparent KD of MS2 coat protein: 24.5 nM
[1]
  apparent KD of MS2 coat protein: 111 nM
Input ligand: none
  apparent KD of MS2 coat protein: 116 nM

## CCGAGUGGCGUACAGGAUAUGUUGCGUGGAACAUGAGGAUCACCCAUGUAUUUGCUCCUGCAUACGCAGAAGGGUGCGUCCUGGG [Estedibe] (Eterna round: R96, puzzle: Same State 2)
Input ligand: FMN 200 uM
  apparent KD of MS2 coat protein: 16 nM
[1]
  apparent KD of MS2 coat protein: 24.1 nM
Input ligand: none
  apparent KD of MS2 coat protein: 29.3 nM

## GGUCCAGCCUGAGCUGGACGAAAGUAUGUACAUGAGGAUCACCCAUGUCAUGUAUAAGUUUUUUGUUCGUCUUGAAA [Sensorship 1 - Jieux - Sensor for hsa-mir-208a] (puzzle: Sensor for hsa-mir-208a)
[2]
  apparent KD of MS2 coat protein: 26 nM
[3]
  apparent KD of MS2 coat protein: 14.2 nM
[4]
  apparent KD of MS2 coat protein: 23.1 nM

## AUAAAACAUGAGGAUCACCCAUGUCAACAAAGUCGAGGAUAUGGGCAAUUAAAAUAAGAACCAGAAGGCGAAUAAU [salish99_ss1_r3_025] (puzzle: Same State 1)
[2]
  apparent KD of MS2 coat protein: 26.4 nM
[3]
  apparent KD of MS2 coat protein: 138 nM
[4]
  apparent KD of MS2 coat protein: 400 nM

## AGCCUGGAAGUCCAGGCAAAACAUGAGGAUCACCCAUGUACAUAGGAUAUCGUCUGAAAAGCAGACGAGAAGGGUGACCGAACU [Titedi] (Eterna round: R96, puzzle: Same State NG 3)
Input ligand: FMN 200 uM
  apparent KD of MS2 coat protein: 687 nM
[1]
  apparent KD of MS2 coat protein: 96.8 nM
Input ligand: none
  apparent KD of MS2 coat protein: 192 nM
